According to patent publication US20160032279:

How the values were obtained:
[1] = target: T1, C-reactive protein (human), P02741; assay: FACS; settings: modification not given
T1 chain: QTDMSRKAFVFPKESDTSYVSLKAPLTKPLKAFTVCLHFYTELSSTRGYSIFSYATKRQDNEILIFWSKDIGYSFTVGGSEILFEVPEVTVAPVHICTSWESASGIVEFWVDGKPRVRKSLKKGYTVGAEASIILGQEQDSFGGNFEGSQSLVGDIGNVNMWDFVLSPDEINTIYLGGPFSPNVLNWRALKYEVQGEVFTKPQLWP

[2] = target: T1, C-reactive protein (human), P02741; assay: FACS; settings: modification not given

Binder	Kd [1]	Kd [2]
FPIYNQRGFITLASP [CRP-2]	3 nM	–
YPPRFQYYRFYYRGP [CRP-10]	5 nM	–
MIFNSRGFLSLMSSG [CRP-6]	8 nM	–
EWACNDRGFNCQLQR [CRP-1]	1.2 nM	1 nM
